# US7998923B2, “Bioactivation of particles” (The Regents of the University of California, priority 2002, dated 2011)
# Square brackets hold non-standard residues; d marks the D form. Cha = N[C@@H](CC1CCCCC1)C(=O)O
# Assay: solubilization assay of CdSe/ZnS quantum dots with bioactivation peptides
# Type: physicochemical
# Conditions: peptide coated CdSe/ZnS quantum dots, diluted from DMSO
# Procedure: A non-limiting example of the MRP is Cha-C-C-Cha-C-C-Cha-C-C-Cha (SEQ. ID. NO. 1) with Cha standing for Cyclohexyl alanine and C for cysteine. […] All synthesis used N-Boc or F-moc protecting groups and sequences may be N-acetylated and/or C-carboxylated. The bioactivation peptides are added directly onto the particles and allowed to form a good dispersion of the quantum dots in DMSO and subsequently yielded stable and highly monodisperse dilutions of the nanocrystals in water and buffer. Stability in water and buffers is enhanced by the addition of a hydrophilic sequence at the N-terminus of the Cha-C-C-Cha . . . sequence. The following sequence was used: G-S-E-S-G-G-S-E-S-G-Cha-C-C-Cha-C-C-Cha-C-C-Cha (SEQ. ID. NO. 2).
# This substitution led to aggregations of particles during the reaction and thus lack of migration on electrophoresis gels. Similarly replacing the cysteines in the binding clusters with alanine gave unstable particles that flocculate rapidly after solubilization in aqueous solvents. […]
substance,measurement,value
NH2-G-S-E-S-G-G-S-E-S-G-Cha-C-C-Cha-C-C-Cha-C-C-Cha-Carboxamide (H-GSESGGSESG[Cha]CC[Cha]CC[Cha]CC[Cha]-NH2; cysteine pairing not given here) [ChaCha E swimmer],stability in water and buffers,enhanced
